Target: Nsp8 NTD (SARS-CoV-2, UniProt P0DTD1)
Assay: NMR

B1: model dsRNA (dsRNA)
RNA 1: GAUGCUACGCGGUAGUA
RNA 2: GUACUACCGCGUAGCAUC
- Kd: ~14.1 µM
